Assays:
SaFapR [1] = molecular target: T1, SaFapR (Staphylococcus aureus RN4220, UniProt Q2FZ56 1-190); test: ITC; second dimer, sequential binding model, 25 C; ITC: 50 mM Tris-HCl pH 8, 150 mM NaCl, 25 C; EMSA: 20 mM Tris-HCl pH 8, 350 mM NaCl, 10 mM MgCl2, 5 mM DTT, 15 min room temperature, native 5% PAGE in 45 mM Tris-borate pH 8, 1 mM EDTA; settings: protein: recombinant; tags: N-terminal His-tag removed with TEV protease; chain copies: 2
T1 sequence: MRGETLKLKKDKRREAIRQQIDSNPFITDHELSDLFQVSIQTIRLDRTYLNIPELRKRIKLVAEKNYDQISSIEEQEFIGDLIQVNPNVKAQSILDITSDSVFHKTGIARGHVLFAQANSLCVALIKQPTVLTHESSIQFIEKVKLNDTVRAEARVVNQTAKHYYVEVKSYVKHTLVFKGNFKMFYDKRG

SaFapR [2] = molecular target: T1, SaFapR; test: ITC; first dimer, sequential binding model, 25 C; ITC: 50 mM Tris-HCl pH 8, 150 mM NaCl, 25 C; EMSA: 20 mM Tris-HCl pH 8, 350 mM NaCl, 10 mM MgCl2, 5 mM DTT, 15 min room temperature, native 5% PAGE in 45 mM Tris-borate pH 8, 1 mM EDTA; settings: protein: recombinant; tags: N-terminal His-tag removed with TEV protease; chain copies: 2

B1: PfapR operator 40 bp (dsDNA)
DNA 1: GCCAATTATATACTACTATTAGTACCTAGTCTTAATTCCG
DNA 2: CGGAATTAAGACTAGGTACTAATAGTAGTATATAATTGGC
Kd (SaFapR [1]): 0.051 ± 0.008 µM
Kd (SaFapR [2]): 0.0005 ± 0.0001 µM
